The values below come from patent US20170368136A1.

One test addresses CaMKIV. The test can be described thus: cell-based or functional assay.
The target in a further test is CaMKII. The test can be described thus: cell-based or functional assay.
CaMKII, sequence (chain, from a related filing, as listed by the source): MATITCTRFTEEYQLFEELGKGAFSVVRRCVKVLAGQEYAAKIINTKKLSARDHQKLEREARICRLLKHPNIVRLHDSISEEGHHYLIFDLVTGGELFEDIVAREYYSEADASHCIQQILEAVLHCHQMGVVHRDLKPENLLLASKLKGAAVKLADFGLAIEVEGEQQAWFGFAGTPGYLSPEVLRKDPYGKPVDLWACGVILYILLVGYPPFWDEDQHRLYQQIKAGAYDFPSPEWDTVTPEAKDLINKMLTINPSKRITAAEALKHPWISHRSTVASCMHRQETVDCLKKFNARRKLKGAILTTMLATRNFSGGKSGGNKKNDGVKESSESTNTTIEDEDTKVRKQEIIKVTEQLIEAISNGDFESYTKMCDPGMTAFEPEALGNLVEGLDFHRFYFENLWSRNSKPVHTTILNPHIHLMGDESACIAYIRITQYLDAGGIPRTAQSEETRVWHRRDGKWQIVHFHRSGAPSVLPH

In the test with CaMKIV, YGRKKRRQRRRKRPPKLGQIGRSKRVVIEDDR (modifications not checked) [tatCN21] showed a reduction of kinase activity in a kinase panel, 5 µM tatCN21 of 35%. Molecule KRPPKLGQIGRSKRVVIEDDR [CN21a] came in with an IC50, phosphorylation of syntide 2 by CaMKII with CaMKII of 100 nM.
